Columns and labels:
[1] = biological target: shedded GPIbα or glycocalicin (UniProt P07359)
[2] = biological target: shedded GPIbα or glycocalicin (UniProt P07359); assay: biomembrane force probe (BFP), adhesion frequency assay; bead-bead mode; VWF-A1 covalently linked to the probe bead, glycocalicin to the target bead; 20 pN impingement, 0.2 s contact; 200 approach-contact-retract cycles per probe-target pair, five pairs
[3] = biological target: shedded GPIbα or glycocalicin (UniProt P07359); assay: biomembrane force probe (BFP), force-clamp assay; bead-bead mode; VWF-A1 on the probe bead, glycocalicin on the target bead; single bonds held at clamp forces of 10-70 pN; bond lifetime vs force; beads without treatment

## VWF-A1 with short N-AIM, high binder form, 1261^H-A1 (from UniProt P04275 1261-1472) (domain or fragment)
[1]
  mean rolling velocity of washed human platelets (native GPIbα) on coated 1261^H-A1 at 800 s^-1: 3.15 μm s^−1
  tethered platelet density; washed human platelets (native GPIbα) perfused at 800 s^-1 for 30 s over coated 1261^H-A1, no treatment: 0.0053 μm^−2
[2]
  adhesion frequency (Pa): 0.13
[3]
  peak bond lifetime at 20-25 pN: 2.26 s
